Three molecules from US20240084003A1 (SIMCERE ZAIMING PHARMACEUTICAL, published 2024) can be followed below.

Like-named read-outs stand apart in the source and are kept apart here.

For experiment [1], the target named is T1, murine CD22 protein (ACROBiosystems, SI2-M52Ha) (murine, UniProt P35329 22-708).
T1 construct: extracellular domain; also called murine CD22-ECD; murine CD22-ECD-His
T1 sequence (looked up): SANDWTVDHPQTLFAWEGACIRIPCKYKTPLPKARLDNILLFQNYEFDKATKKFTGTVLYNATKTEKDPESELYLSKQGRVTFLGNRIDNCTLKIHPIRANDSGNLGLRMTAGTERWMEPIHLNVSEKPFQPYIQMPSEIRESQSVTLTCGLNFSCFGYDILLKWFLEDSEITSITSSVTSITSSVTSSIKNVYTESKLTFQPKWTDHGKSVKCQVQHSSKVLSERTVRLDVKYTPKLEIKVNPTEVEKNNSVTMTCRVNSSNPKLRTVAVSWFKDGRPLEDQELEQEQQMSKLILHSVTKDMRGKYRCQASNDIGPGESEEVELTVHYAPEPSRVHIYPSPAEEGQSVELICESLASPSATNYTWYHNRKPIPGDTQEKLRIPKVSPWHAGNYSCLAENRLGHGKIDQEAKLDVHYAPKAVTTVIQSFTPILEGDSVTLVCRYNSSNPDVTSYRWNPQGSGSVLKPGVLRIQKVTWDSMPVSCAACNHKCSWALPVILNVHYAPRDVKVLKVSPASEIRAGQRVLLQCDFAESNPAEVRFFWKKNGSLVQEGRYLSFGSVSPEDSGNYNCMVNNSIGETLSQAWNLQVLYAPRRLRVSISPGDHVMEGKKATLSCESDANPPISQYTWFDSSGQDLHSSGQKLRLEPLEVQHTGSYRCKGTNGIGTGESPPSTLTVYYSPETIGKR
Briefly: ELISA, coated murine CD22, 0.01 nM Ab. The essentials:
(§1)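 Direct ELISA: chimeric antibody binding to CD22 coated at 2 μg/mL, with a 37° C, 2 h antibody step and HRP/TMB detection.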

Experiment [2] deals with T1, murine CD22 protein (ACROBiosystems, …). Put plainly: ELISA, coated murine CD22, 0.0001 nM Ab. Put shortly:
as §1

In experiment [3] the target is T2, human CD22, endogenous on Raji cells (human, UniProt P20273 20-847).
T2 construct: whole, on cells; Endogenous protein of the Raji cell line
T2 sequence (looked up): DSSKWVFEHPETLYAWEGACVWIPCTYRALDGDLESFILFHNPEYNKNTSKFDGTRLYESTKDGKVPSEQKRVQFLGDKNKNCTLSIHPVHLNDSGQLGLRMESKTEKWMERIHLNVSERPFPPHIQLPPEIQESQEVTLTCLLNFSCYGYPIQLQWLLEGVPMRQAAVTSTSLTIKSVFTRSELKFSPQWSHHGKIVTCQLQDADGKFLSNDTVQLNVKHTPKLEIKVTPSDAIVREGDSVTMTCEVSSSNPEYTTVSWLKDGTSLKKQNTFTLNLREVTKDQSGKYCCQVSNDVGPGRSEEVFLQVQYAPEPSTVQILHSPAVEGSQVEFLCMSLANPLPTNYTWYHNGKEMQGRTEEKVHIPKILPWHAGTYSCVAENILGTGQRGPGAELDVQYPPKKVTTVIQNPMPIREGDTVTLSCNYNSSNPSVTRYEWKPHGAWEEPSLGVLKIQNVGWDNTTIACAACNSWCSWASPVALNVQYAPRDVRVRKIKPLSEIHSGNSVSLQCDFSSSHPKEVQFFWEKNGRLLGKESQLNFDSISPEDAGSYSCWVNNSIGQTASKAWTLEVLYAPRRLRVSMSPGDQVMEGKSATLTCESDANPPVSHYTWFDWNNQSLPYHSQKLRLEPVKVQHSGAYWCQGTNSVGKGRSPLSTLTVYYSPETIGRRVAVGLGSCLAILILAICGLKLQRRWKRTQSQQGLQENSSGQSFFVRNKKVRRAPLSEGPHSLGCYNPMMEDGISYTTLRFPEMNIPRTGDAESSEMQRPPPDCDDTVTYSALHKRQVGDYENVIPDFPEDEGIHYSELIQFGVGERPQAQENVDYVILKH
Briefly: FACS, Raji cells. From the text: (§2) The required cells were scale-up cultured in a T-75 cell culture flask to the logarithmic growth phase. For the adherent cell CHO-K1, the medium was aspirated, the cells were washed 2 times with PBS buffer, and then digested with trypsin. After the digestion was terminated, the cells were washed 2 times with PBS buffer. For suspension cell Raji, the medium supernatant was directly centrifuged and discarded, and the cell pellet was washed 2 times with PBS. After counting the cells in the previous step, the cell pellet was resuspended with [PBS+2% (w/w) BSA] blocking solution to 2×10⁶ cells/ml, and added to a 96-well FACS reaction plate at 50 μl/well, and then the chimeric antibody test sample was added at 50 μl/well, and incubated on ice for 2 hours. The mixture was centrifuged and washed 3 times with PBS buffer, Alexa Flour 488-labeled secondary antibody (purchased from Invitrogen, catalog number: A-11013) was added at 50 μl/well, and incubated on ice for 1 hour. The obtained mixture was centrifuged and washed 5 times with PBS, and FACS (FACS Canto™, purchased from BD Company) was used for detection and result analysis. Data analysis was performed by software (CellQuest) to obtain the mean fluorescence density (MFI)of the cells. And then software (GraphPad Prism8) was used for analysis, data fitting, and EC50 value calculation. […] The same method was used to detect the binding of the chimeric antibodies to endogenous CD22-negative cell MoLT4 cells (purchased from ATCC, CRL-1582) and CHO-K1 cells.

The target in experiment [4] is T1, murine CD22 protein (ACROBiosystems, …). Briefly: ELISA, coated murine CD22, 0.00001 nM Ab. The essentials: as §1
Experiment [5] shares this target. Put plainly: ELISA, coated murine CD22, 0.001 nM Ab. Put shortly:
as §1

Experiment [6] has the same target. Briefly: ELISA, coated murine CD22, 100 nM Ab. The essentials:
as §1

The target is the same in experiment [7]. Put plainly: ELISA, coated murine CD22, 0.1 nM Ab. Put shortly:
as §1

For experiment [8] the target is unchanged. Put plainly: ELISA, coated murine CD22, 10 nM Ab. Put shortly: as §1
The target in experiment [9] is T3, human CD22, full length, on CHO-K1-human CD22 2C4 cells (human, UniProt P20273 20-847).
T3 construct: Full-length human CD22 (NCBI NP_001762.2) stably transfected into CHO-K1
T3 sequence: T2 sequence (looked up)
Briefly: FACS, CHO-K1-human CD22 2C4 cells.
Description: as §2

Experiment [10] concerns the target T3, human CD22, full length, on …. Put plainly: FACS, CHO-K1-human CD22 2C4 cells. The essentials:
(§3)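 Raji cells and CHO-K1 cells expressing human CD22 were blocked in PBS + 2% BSA at 2×10⁶ cells/ml and incubated with chimeric antibody for 2 h on ice. Bound antibody was detected with an Alexa Fluor 488 secondary for 1 h on ice and read by flow cytometry as MFI. EC50 came from curve fitting.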
The source holds these as a separate data set.

Experiment [11] concerns the target T2, human CD22, endogenous on Raji cells. Briefly: FACS, Raji cells. The essentials: as §3
This is another data set of the same source.

B1: F2.173.9 human-murine chimeric antibody (antibody, human IgG1, lambda, V domains shown)
VH: EVQLVESGGDLVKPGESLKLSCEASGFTFSNYAMSWVRQTPDRRLEWVATISSIGSFTYYSDSVKGRFTISRDNVKSTLHLQMNNLKSGDTAIYFCARLGVYFDSWGQGTTLTVSS
VL: QLVLTQSSSASFSLGASAKLTCTLSSQHSTYTIEWYQQQPHKPPKFVMEIKKDGSHYTGDGIPDRFSGSSSGADRYLSISNIQPEDETIYICGVSDMIKDQFVYVFGGGTKVTVLG
notes: Chimeric, human IgG1 / lambda
Take B1: the OD450 in experiment [1] was 0.05 OD450; in experiment [2], 0.05 OD450; in [4] it was 0.06 OD450; in experiment [5], 0.05 OD450; in [6], 0.09 OD450; in experiment [7], 0.05 OD450. In experiment [8], this molecule gave an OD450 of 0.06 OD450. The results for the EC50 in experiment [3] and in [9] were 0.84 nM and 1.23 nM, respectively. For the same molecule, the “Maximum mean fluorescence intensity” value in experiment [3] was found to be 18900 MFI; in experiment [9], 40300 MFI.

B2: F2.121.9 human-murine chimeric antibody (antibody, human IgG1, lambda, V domains shown)
VH: EVQLVESGGGLVKPGGSLKLSCAASGFTFSDYVMSWIRQTPEKRLEWVATISDAGSYTFYPDNLKGRFTISRDNAKNNLYLQMNHLTSEDTAFYYCAIIYFGNYGGYWGQGTLVTVSV
VL: QAVVTQESALTTSPGGTVVLTCRSNTGAVTTSNYANWVQEKPDHLFTGLIGGTSNRAPGVPVRFSGSLIGDKAALTITGAQTEDDAMYFCALWYSTHWVFGGGTKLTVLG
notes: Chimeric, human IgG1 / lambda
Take B2: the OD450 is 0.05 OD450 in experiment [1]; 0.06 OD450 in experiment [2]; 0.06 OD450 in experiment [4]; 0.06 OD450 in [5]; 0.06 OD450 in [6]; 0.05 OD450 in experiment [7]. In [8], the OD450 is 0.06 OD450. Further, the EC50 worked out at 0.86 nM in experiment [3] and 1.09 nM in experiment [9]. Also, the “Maximum mean fluorescence intensity” value in experiment [3] was determined as 18900 MFI; in [9], 39700 MFI.

B3: HA22-hIgG1 (antibody, V domains shown)
VH: EVQLVESGGGLVKPGGSLKLSCAASGFAFSIYDMSWVRQTPEKCLEWVAYISSGGGTTYYPDTVKGRFTISRDNAKNTLYLQMSSLKSEDTAMYYCARHSGYGTHWGVLFAYWGQGTLVTVSA
VL: DIQMTQTTSSLSASLGDRVTISCRASQDISNYLNWYQQKPDGTVKLLIYYTSILHSGVPSRFSGSGSGTDYSLTISNLEQEDFATYFCQQGNTLPWTFGCGTKLEIKR
As to B3, the OD450 in experiment [1] is 0.06 OD450; in experiment [2], 0.06 OD450; in [4] it was 0.06 OD450; in experiment [5], 0.05 OD450; in experiment [6] it was 0.1 OD450; in [7], 0.06 OD450. This molecule returned an OD450 in experiment [8] of 0.07 OD450. In addition, the EC50 worked out at 0.71 nM in experiment [3], 0.81 nM in experiment [10], 0.29 nM in experiment [11] and 1.1 nM in experiment [9]. In addition, the “Maximum mean fluorescence intensity” value is 19700 MFI in [3], 32700 MFI in [10], 25000 MFI in experiment [11] and 43400 MFI in experiment [9].
